For one assay, the target named is T1, GST-praja2_(550–610) (human, UniProt O43164 550-610, fluorescent dye on primary amines (NHS-ester labelling)).
T1 construct: praja2 (PJA2), human, residues 550-610; The results call P1-P3 synthetic peptides; the methods describe recombinant GST fusions; also called P2; source: recombinant, purified (GST Trap, Superdex 75 gel filtration)
T1 sequence (looked up): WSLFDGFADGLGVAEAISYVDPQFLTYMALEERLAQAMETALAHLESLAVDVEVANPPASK
The experiment in a line: MST; Monolith NT 115; GST-praja2 fragments labelled with NHS-ester dye, TBC1D31 peptides titrated (16-point 1:1 dilution); 25°C, 20 mM NaP, 200 mM NaCl, 1 mM DTT, 0.05% Tween-20, pH 7.4. Particulars: both partners purified.

The target in assay [1] is T2, GST-praja2_(530–570) (human, UniProt O43164 530-570, fluorescent dye on primary amines (NHS-ester labelling)).
T2 construct: praja2 (PJA2), human, residues 530-570; The results call P1-P3 synthetic peptides; the methods describe recombinant GST fusions; also called P1; source: recombinant, purified (GST Trap, Superdex 75 gel filtration)
T2 chain (looked up): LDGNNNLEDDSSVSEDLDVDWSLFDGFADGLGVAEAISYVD
The description is as above. Conditions: both partners purified.

Assay [2] concerns the target T3, GST-praja2_(530–570) (human, UniProt O43164 530-570, fluorescent dye on primary amines (NHS-ester labelling)).
T3 chain: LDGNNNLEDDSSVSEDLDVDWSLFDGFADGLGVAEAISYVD
The experiment in a line: MST.

Results on two molecules are retold here after paper PMC8126939, “The TBC1D31/praja2 complex controls primary ciliogenesis through PKA‐directed OFD1 ubiquitylation” (The EMBO Journal, 2021).

B1: peptide of the C-terminus segment of TBC1D31 (peptide)
peptide: WDTTGQNLIKKVRNLRQRLTARARHRCQTPHLLAA
notes: TBC1D31, human, C-terminus segment; also called WA35 TBC1D31; wild-type TBC1D31 peptide; source: synthetic peptide (bought: Shanghai Apeptide Co., Ltd)
B1: the results for the Kd with GST-praja2_(550–610) and with GST-praja2_(530–570) [1] were 80 µM and 37 µM, respectively.

B2: double AA mutant TBC1D31 peptide (peptide)
peptide: WDTTGQNLIKKVANLAQRLTARARHRCQTPHLLAA
notes: TBC1D31, human, C-terminus segment peptide with R948A and R951A; also called TBC1D31AA; R948A-R951A; source: synthetic peptide (bought: Shanghai Apeptide Co., Ltd)
As for B2, the binding result with GST-praja2_(530–570) [1] was “binds”. For the same molecule, the Kd with GST-praja2_(530–570) [2] is about 65 µM.

By Kd is commonly meant the free concentration of one partner at which half of the binding sites on the other are occupied at equilibrium, for simple one-to-one binding. Higher therefore signals weaker binding.
